In IntAct's records for PubMed 10660620:

Target: pilra_human PILRA (UniProt Q9UKJ1)
Sequence (Q9UKJ1 whole entry): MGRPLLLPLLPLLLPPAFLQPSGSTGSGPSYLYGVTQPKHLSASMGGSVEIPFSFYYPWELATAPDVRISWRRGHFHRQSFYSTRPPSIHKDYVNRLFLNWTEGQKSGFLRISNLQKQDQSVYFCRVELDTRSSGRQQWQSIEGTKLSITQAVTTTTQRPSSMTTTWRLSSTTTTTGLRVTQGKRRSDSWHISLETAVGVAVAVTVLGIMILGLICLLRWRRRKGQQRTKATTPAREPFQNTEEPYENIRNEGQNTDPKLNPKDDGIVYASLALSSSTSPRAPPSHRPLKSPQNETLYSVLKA

Sequence of Tyrosine-protein phosphatase non-receptor type 6 (Homo sapiens), P29350 D419A (P29350 whole entry D419A): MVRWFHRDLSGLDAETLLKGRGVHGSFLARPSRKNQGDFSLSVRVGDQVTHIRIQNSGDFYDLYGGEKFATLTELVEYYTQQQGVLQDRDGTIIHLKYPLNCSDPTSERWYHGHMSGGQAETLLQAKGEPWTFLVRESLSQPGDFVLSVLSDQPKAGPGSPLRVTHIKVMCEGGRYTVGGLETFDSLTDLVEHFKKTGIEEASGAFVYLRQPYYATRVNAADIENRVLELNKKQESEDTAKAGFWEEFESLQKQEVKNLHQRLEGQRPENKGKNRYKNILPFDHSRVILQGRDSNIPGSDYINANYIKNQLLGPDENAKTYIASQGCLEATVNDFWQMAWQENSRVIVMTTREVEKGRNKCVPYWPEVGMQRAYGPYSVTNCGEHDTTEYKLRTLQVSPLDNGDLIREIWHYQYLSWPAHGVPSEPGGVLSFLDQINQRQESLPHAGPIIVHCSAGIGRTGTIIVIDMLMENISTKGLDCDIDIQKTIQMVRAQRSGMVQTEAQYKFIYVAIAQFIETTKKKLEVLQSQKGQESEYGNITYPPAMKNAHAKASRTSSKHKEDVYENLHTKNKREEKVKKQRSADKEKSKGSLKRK

- effect of a mutation on the interaction: increasing interaction
Substance: Tyrosine-protein phosphatase non-receptor type 6 (Homo sapiens), P29350 D419A
